Measurements published in the domain aggregation screens of Martell et al. (2025).

Assay: soluble fraction after stress (log2 fold change); higher = more stays soluble; pooled small domains, quantitative proteomics
Settings: stress: 75 degC
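Also: 20 min heating vs room temperature control held 20 min.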

Sequence	soluble fraction (log2)
HMGELTSILVATKQIEPGETLSSSNTQVKSWISDLIPEGAITNPESVMGRTVSSVIGVGMPVVSLHLR	0.462
HMGELVIPPLRERTVVDAVAEAERLGFVVQVEPVASSLPEGRVLGQSPEPGTRARKSQVVVLQVSRG	-0.614
HMGEPLTVVAAAGGDRLDRWLAGQLAGRSRAEIQRWIEAGQVTLAGRSLKASYRLSAGDAIDVAIPPPE	-0.366
HMGEPVEIEEPITVRSLSEALGLKSSAIISHLMRQGVFATINQNLDKETAELIAAEYGIELRIK	-0.0834
HMGETDDDFRELEEFVEKTKFDKLGTFMYSKEEGTPAARLPEQIHGNTKKSRYNKIMSIQQKVSNEN	0.253
HMGETPEILRDWEAAQNAVNDMLSKYAPGGYMGKIIYPLLTPLKERLEAGERTPDLYNAIVEAT	0.119
HMGETYTIPDVRGYTLEDAMELPEIKENGFTIIEGRQIVDADVPVGQIISQTPEAESIAKSNVKEITVNIS	0.239
HMGEVPVETKDGIKVHVHTVDKSQTAYGISRLYNITLNELYESNPEAKLELSIGQKLYFPVK	-0.199
HMGEVVRAPMPGNVLKMEVAQGQEVEEGDLLLVLEAMKMENDIVAPKGGIVIQLVVDKGMVVETDDPLVVI	-0.339
HMGEWNSVFSVPSSVVDKHLKTASSVYVKVLLVILRNAGNRISDQQISEQLSVPVDEVQEAIRYWNAAGIF	-2.76
HMGFAANLSRLMEYHNISMYRLAKEVGVHQTTVKNWLEEESEPKIAALEKIVGLLGVSYDELLG	-4.58
HMGFLTGNTQGEVNRKTKNQMVNIFLPTTPNPTSGFLLFVPKKDILRLTMTVEEGIKMIISAGMLTPS	-0.527
HMGFTDREREIIRNDLVATGRELFGTFGLKKTSIEDLTKAVGIAQGSFYTFFNSKEELYLEVMDREGEA	-1.14
HMGGALSPDFGWLAMIDPDEGRAITLYDIASGEAIAVLDTHEARVAALAWSPDGTRLASGDQNGLIVQWEI	-0.31
HMGGEEPYGSGSLRLAAGAVVPSGYTIKGNEDSMLYHTTESPWYKQTIAEVWFNAESAAQRAGFTRWDAKD	-0.137
HMGGEIGSGKNGYVAFYKGKKVDVKADSMYGAQKTAAKYFNAKKEYDVNVVLAEVDGKQYVQS	0.547
HMGGGVERLTPRQREVLGYMAEGRSNSWIAGAIGFSEKAVVQHTSKIYDALGLAVDADDHRRVLAVLRYLT	-1.44
HMGGKWKLRILWHIHHGDTRFSTLKRGIPEISEKILAQQLRELEEHQLIKRRVVTVMPPHVVYEL	-2.37
HMGGLAEIILNAIEIEGGFLPITDKSAPELIQSRLGMSKKAFKEAVGTLYKNRDIAIEPNGLRKI	-0.452
HMGGLALAEREVVEWLSQRNLLPSPDVVARAAAHPDGLGWLERSLAVLEGPRLFLGLGDLVPEP	-0.688
HMGGLAVQLVHAMTDQIRSGRLKAGDKLPTEAAIMKDFGVSRTVVREAISRLQASGWVDTRHGIGTFVLHQ	-2.1
HMGGLIEPLSARELEVLELMSLGKTNQEIARDLVVASGTIKAHAASIYRKLDAANRTEAVTHARELGIL	0.471
HMGGPEVLELEDVKVGSPGPDEIKVTNHAIGLNYIDTYHRSGLYPLKLPSGIGLEAAGKVEEIGSNV	0.00701
HMGGQEEALNRLVLRELLGTLEKKERDLIVRRYFYDQTQTKIAEALGISQVQVSRMEKRILKKMREGF	-0.98

Sequence	soluble fraction (log2)
HMGGRSARVRRAVLDAVVELLGEGGVRAVTIAEVAKRSGVNASSIYRRWRSIDALILDAAQDL	-2.51
HMGGSDIYLGAFNIPQGSVRVTSGGQALTEGKDFTIDYNLGSVKIINQAILNSGIPVSVSYENNAG	0.0185
HMGGSLADAKRFLADLLADGPVPAKGVRADADGAGHTWPTIRRAQKALGIEATKTGMKGGWVWALPR	-0.165
HMGGSVYTVQKGDTLWSIAKEQLGSPLRYAEIYDLNKDVIEEAARGRGKKDSSNGHWLVVGTSLQIPEAT	0.184
HMGGTAGKINAIGVNFRTGPSTSYTSLGLLGKDTAVTVIGTSGKWYKVTIVSTGKTGYVYATYVNLTP	-2.25
HMGGVIEDDRGQWAHPGEVTKINSNNITMKGVDFPVLGISDTGDKKMMQPGKDYKFDGNSVTEYPMA	-0.24
HMGGWEEGVYVVREGDTLSDIVHDAVKGTEIHPDFILNAIVRVNPSAFVRGNPSWMLAGKKIK	-0.0613
HMGGYVTGTIDLTKFGYAFVITEESEDDVFVAARNLNTALHGDQVKVLLYARHKGKRPEGEVVEIISRSRA	-2.35
HMGHEEPITFDRLPQAAQTFLKTHFDTLTVAYIVADRKFMGVEYEVKYTDRTEVDFRSDGQWESV	0.085
HMGHKTLTVELQEKIENLPQTLDKYNLTLGNNKMSVDYTYSVKEKQTGITNLLQDLKEHKFDIVYLVGQDN	0.343
HMGHLSNENAGRLLDRVLNDKIHAIMLGHLSKENNMPELAHEAVRMEITMGESRYKADDFPIYVA	-0.0465
HMGHTKLVVDIVEELKLEQGALLPILHAIQDELGYVPTKSVPFIADSLNLSRAEVHGVISFYHYFR	0.153
HMGIAWGMLREQVAASDVSYRSEVLDILDRTPVWIYDAEGKIVDGRKKRLMDLQGGEPYRHMLEHFFPDLR	-2.43
HMGIDAIDNFVSKIIMKIEGLGESEVPTSTIGKFIMEGLQYLDTVAYVRYASVYKNFKEAKDFEQFVGSL	-0.0349
HMGIDRPLFTLAQFARQIGEQVKISLSLPQDGRRRLQGKVLSVGESGIVLDVDGREFTVAIGNVDKARL	-1.83
HMGIDSSVYVEARYELGHLYLKQKKYAAAYASFKEILDMYASTTPGVLPGAYNKLAEIGMKRIPKNKL	-2.66
HMGIIQAQIPGLVSRLFVKKGDKVAVNQRLFILEAMKMENEIDSPIQGMVEKIHITTGSKVEKGDLIMEIV	-2.9
HMGIIYGKNPVLEAISSGTTINKIYAQTSNKEIDSVIKEALKRKIIVVNTDKQKLDKMIDGKNSQGIIASI	0.025
HMGIKAADIVTNDIQFNTQAQFDKYKDLYPTLGWGNYDPNKTYTMQGFKNKLKPNELFTGTPNLKIEDT	0.486
HMGIKDRIVYIMEKEKLSIPLFAKKIGIGPSTLLHIIRGKNAPSLQVVQAIHKAYPDIDLNWLI	-1.66
HMGIKSSASLQEAAEKAQSAYYDIEHSGVATAVDIQRAWVAMVAAQIDAGEKLDSGTITLYERLKTST	0.0117
HMGIMNFDTWLKSLPGTPTPTIAAKKSGLAAPTLLRHVERGYSTADNVIAIAKAYGVSPIDALVDNGML	-0.956
HMGIMSEITHRVLRLLGLLESRSTWTGSDLAERLGVTQRTIRRDVIRLRELGYQVDSVQGLDGGYRMS	-2.65
HMGIPVSIGQLDFNQARGNLALQVRASDFAALEQLRQRLGQTGESVQLGSASRDGDAVSARVVIGGQ	0.0963

Sequence	soluble fraction (log2)
HMGIQQNHMTLHARSVASSANVPAEHFDTLVEKLIESGDIKVWKAREILMNLSRQHEEILDES	-0.789
HMGISGSDLEKMIRNILVNNTDVVETIKSGQDKKGKKQKFLQGLIMKEARGQTDPREAASLLAKLLE	-0.108
HMGITMFGQNLKKLRTSKNLSQSKLSKILGISSSTIGMYEQGRRFPDQTILTKIADFFDVSTDYLLGR	-0.819
HMGIVAQLPTIRVNGKTLYYYDAQSGDNIYSIAEKLGVTVEDIRANNPGVADGVKPRMRLFFPTSLAK	-0.377
HMGIVYGVIKENWDQDHPGMVKVEILQGESGKNVSDWIPVMSPYAGKEFGAYALPEIGTQAVVAFE	0.24
HMGIYDQAAAAYIEFVESKNRAPKWNELIDALYKENGKDWIDRSTLHGLLRRKEFQELLAQKRKEHLV	-0.76
HMGIYFIIAAKNQENNIEEFIRTTLFRIVYGKEESINNITLVDLKSKDNTKNIMEEIARENENVKV	-0.641
HMGKAPREVQVGELLRVPALNAEGEVLRRDGESVELSIQGKKLRLPLAQLEAFSPRRFARRGEGKVRGRIE	0.591
HMGKDLLGYEVFAESGDLVGILKDVMWLPHSDVYVITKGGKEFLIPVIPEVVKGINHEQGVIVISPMEGLL	-0.234
HMGKDTLKLKKNAIPYDENGKKLTNLGYSYIKKTTVLNYYGTKIINGSTYYFLGDGVYIKAANVGTTSH	-2.56
HMGKEYERALQQVTKSEIDSDEKLQQQMDALVNSPRISDKEDAWALLLVKKLRNEGVEWDELPDVLSERVQ	0.159
HMGKGGVAYLLESEFGIELPKDMQREFGPIANDIVDSLGREVSGAELKSMFWKEYIERETPFLLLLVTGQL	0.404
HMGKIFSELTPREIEVVRLIADGLSNQQIAEELFLSNGTVRNHISTILEKTGLEHRTQIAVMWLR	-0.139
HMGKKIVERRNTILNMVNKYGTLDFPQLRDAFPDVSDVTLRKDLQYLDSTKQAIRTHGGIKSI	-0.0604
HMGKLQFREKLNGILELGKEKHRVLTMEDVEKYFEEDALSEEQMELVYDYLLSQKIAVTGYVKK	-0.509
HMGKPPNNRIHRAKRDYALNLVKEHYPDFGPTLAAEKLAEHHGFTVSRETLRKWMIEDGIWLSRKQRR	-0.475
HMGKQIKEIVEEYYDSTSKNSPVGGSWKTSLDGVDLTSPNITIWTRTKIKYVDGSESIVTPQSL	-0.105
HMGKRPTIQMVAEMAGVSRGTVDRVLNGRSYVSAQVRQRVLAALQETGYISSREHHQQALQS	-0.691
HMGKRRGLKVAEEVFADRGYNPDGTLVNRSLPGAFVKDPDEAIARVIKMVKTKKVTAVNGEEIDIAADSI	-0.0957
HMGKSDEIFIQKSALYEELGQPDRALEMIYSALKSDSLNIDVLHRLVTLLINQNKNEDAILYNQKIID	-0.203
HMGKTEETLQMEKLVEALRRSGRMKYEDAYRIVYAAFPDAKDFEGMLSGAIRAGFIELQMGNDGAFLRAL	-0.859
HMGKVNGFEITVIEGKNVVGSITPRQAIAKNSDGVIQLRGEQSFSATDQVLINELAFYIKSNNLKA	-1.31
